The record followed here is the supplement of paper PMC9112550, “Optimization of the antimicrobial peptide Bac7 by deep mutational scanning” (BMC Biology, 2022).
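Further: peptides expressed intracellularly from a pBAD plasmid library in pooled LB shake-flask culture, induced with 0.3% L-arabinose, DNA abundance read by NGS, three biological replicates, DESeq2 with apeglm shrinkage.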

This data set relates to Escherichia coli TOP10. Put plainly: shrunken log2 fold change of peptide-encoding DNA abundance (4.5 h post-induction vs induction); higher = less antimicrobial activity (less host growth inhibition). The settings on record: time post-induction: 4.5 h; library: site-saturation at positions 5, 18, 19, 20.
With RRIRDRPPRLPRPRPRPQTPPRP, the “shrunken log2 fold change” value was 0.4. The same measure for RRIRLRPPRLPRPRPRPKGKPRP: -0.106. Take RRIRGRPPRLPRPRPRPCALPRP: the “shrunken log2 fold change” value was found to be 0.594. The same measure for RRIRLRPPRLPRPRPRPMSTPRP: -0.302; for RRIRDRPPRLPRPRPRPTKNPRP: 0.0799; for RRIRHRPPRLPRPRPRPAARPRP: 0.168.

For the sequence RRIRFRPPRLPRPRPRPWLNPRP, the “shrunken log2 fold change” value is -0.189. In the case of RRIRDRPPRLPRPRPRPVIPPRP it was 0.471.

On to RRIRERPPRLPRPRPRPIDNPRP, for which the “shrunken log2 fold change” value is -0.108. In the case of RRIRRRPPRLPRPRPRPRHVPRP it was 0.158; in that of RRIRKRPPRLPRPRPRPMERPRP, -0.024; in that of RRIRDRPPRLPRPRPRPSVFPRP, 0.423. The same measure for RRIRTRPPRLPRPRPRPWNIPRP: 0.0303; for RRIRTRPPRLPRPRPRPWKGPRP: 0.143; for RRIRIRPPRLPRPRPRPKYMPRP: -0.566.

In the case of RRIRYRPPRLPRPRPRPGGFPRP, the “shrunken log2 fold change” value was -0.169. In the case of RRIRHRPPRLPRPRPRPINSPRP it was -0.404; in that of RRIRGRPPRLPRPRPRPVIYPRP, 0.0164; in that of RRIRLRPPRLPRPRPRPSHPPRP, -0.516. The same measure for RRIRCRPPRLPRPRPRPMCSPRP: -0.218; for RRIRRRPPRLPRPRPRPQFPPRP: 0.133; for RRIRMRPPRLPRPRPRPQKAPRP: 0.0203.

In the case of RRIRQRPPRLPRPRPRPCLSPRP, the “shrunken log2 fold change” value is -0.383. In the case of RRIRPRPPRLPRPRPRPNASPRP it was 0.0199; in that of RRIRLRPPRLPRPRPRPLLYPRP, -0.326; in that of RRIRYRPPRLPRPRPRPEEIPRP, -0.00965. On to RRIRGRPPRLPRPRPRPSNDPRP, for which the “shrunken log2 fold change” value came out at 0.702.

Consider RRIRIRPPRLPRPRPRPPYEPRP, for which the “shrunken log2 fold change” value is -0.315. RRIRYRPPRLPRPRPRPKRMPRP: the “shrunken log2 fold change” value was -0.207. The same measure for RRIRDRPPRLPRPRPRPWAEPRP: 0.302; for RRIRIRPPRLPRPRPRPRMNPRP: -0.593. The same measure for RRIRWRPPRLPRPRPRPQWHPRP: 0.0415; for RRIRKRPPRLPRPRPRPADSPRP: 0.00593. The same measure for RRIRTRPPRLPRPRPRPMFMPRP: 0.000513. As for RRIRLRPPRLPRPRPRPLQPPRP, the “shrunken log2 fold change” value was 0.206. In the case of RRIRKRPPRLPRPRPRPALEPRP it was -0.108.

Regarding RRIRMRPPRLPRPRPRPENRPRP, the “shrunken log2 fold change” value was determined as 0.247.

As to RRIRIRPPRLPRPRPRPFKAPRP, the “shrunken log2 fold change” value is -0.431. In the case of RRIRCRPPRLPRPRPRPKSTPRP it was -0.137. The same measure for RRIRLRPPRLPRPRPRPAPMPRP: 0.118; for RRIRERPPRLPRPRPRPAIKPRP: -0.656; for RRIRARPPRLPRPRPRPYCGPRP: -0.192.

RRIRKRPPRLPRPRPRPVYYPRP: the “shrunken log2 fold change” value was -0.094. Consider RRIRHRPPRLPRPRPRPFDFPRP, for which the “shrunken log2 fold change” value was -1.21. Take RRIRWRPPRLPRPRPRPTFEPRP: the “shrunken log2 fold change” value amounted to 0.13. Take RRIRERPPRLPRPRPRPFFDPRP: the “shrunken log2 fold change” value is 0.0568. The same measure for RRIRPRPPRLPRPRPRPNYHPRP: -0.607; for RRIRPRPPRLPRPRPRPQTMPRP: 0.235. The same measure for RRIRHRPPRLPRPRPRPTSTPRP: -0.199.

For the sequence RRIRSRPPRLPRPRPRPWYGPRP, the “shrunken log2 fold change” value was -0.933. In the case of RRIRVRPPRLPRPRPRPRNFPRP it was -0.275; in that of RRIRPRPPRLPRPRPRPCTCPRP, -0.049. In the case of RRIRERPPRLPRPRPRPYKHPRP it was -0.684; in that of RRIRVRPPRLPRPRPRPVNMPRP, -0.418.

As to RRIRERPPRLPRPRPRPSFQPRP, the “shrunken log2 fold change” value was -0.0708. As to RRIRTRPPRLPRPRPRPGKGPRP, the “shrunken log2 fold change” value was 0.0141. In the case of RRIRQRPPRLPRPRPRPQDDPRP it was -0.0165; in that of RRIRLRPPRLPRPRPRPKSPPRP, 0.0414; in that of RRIRRRPPRLPRPRPRPVMMPRP, -0.0277. In the case of RRIRYRPPRLPRPRPRPIGNPRP it was 0.167; in that of RRIRKRPPRLPRPRPRPNCKPRP, 0.495; in that of RRIRIRPPRLPRPRPRPCWTPRP, -0.281. In the case of RRIRERPPRLPRPRPRPNTWPRP it was 0.0226; in that of RRIRPRPPRLPRPRPRPNFVPRP, -0.0668; in that of RRIRKRPPRLPRPRPRPCYQPRP, -0.42. Consider RRIRPRPPRLPRPRPRPNDNPRP, for which the “shrunken log2 fold change” value is -0.533. The same measure for RRIRERPPRLPRPRPRPYMAPRP: -0.137; for RRIRSRPPRLPRPRPRPVVNPRP: 0.0966; for RRIRRRPPRLPRPRPRPGKKPRP: 0.0542. The same measure for RRIRARPPRLPRPRPRPFETPRP: 0.0585; for RRIRQRPPRLPRPRPRPGWYPRP: 0.126. The same measure for RRIRCRPPRLPRPRPRPWSHPRP: -0.0223; for RRIRRRPPRLPRPRPRPDGDPRP: 0.485. In the case of RRIRVRPPRLPRPRPRPTKQPRP, the “shrunken log2 fold change” value is -0.0322.

As to RRIRARPPRLPRPRPRPKWKPRP, the “shrunken log2 fold change” value is -0.291. As for RRIRRRPPRLPRPRPRPLWYPRP, the “shrunken log2 fold change” value is -0.166. As for RRIRGRPPRLPRPRPRPKKWPRP, the “shrunken log2 fold change” value was -0.00138. The same measure for RRIRVRPPRLPRPRPRPNVQPRP: -0.0734. With RRIRCRPPRLPRPRPRPCWEPRP, the “shrunken log2 fold change” value was -0.0142. In the case of RRIRKRPPRLPRPRPRPMWCPRP it was -0.113; in that of RRIRGRPPRLPRPRPRPDCCPRP, 1.34.

Regarding RRIRQRPPRLPRPRPRPIILPRP, the “shrunken log2 fold change” value was -0.516. Turning to RRIRRRPPRLPRPRPRPYMGPRP, the “shrunken log2 fold change” value came out at 0.00385.

Take RRIRDRPPRLPRPRPRPCAQPRP: the “shrunken log2 fold change” value is 1.19. The same measure for RRIRGRPPRLPRPRPRPKNNPRP: 0.198; for RRIRDRPPRLPRPRPRPCCDPRP: 0.655.

As to RRIRHRPPRLPRPRPRPKYTPRP, the “shrunken log2 fold change” value came to 0.973. The same measure for RRIRARPPRLPRPRPRPQSIPRP: -0.0868.

Consider RRIRRRPPRLPRPRPRPGYNPRP, for which the “shrunken log2 fold change” value is -0.27. The same measure for RRIRWRPPRLPRPRPRPGVTPRP: 0.586. The same measure for RRIRWRPPRLPRPRPRPRGSPRP: 0.495; for RRIRVRPPRLPRPRPRPPNCPRP: 0.194; for RRIRTRPPRLPRPRPRPCPFPRP: -0.484. The same measure for RRIRNRPPRLPRPRPRPSEKPRP: -0.0315; for RRIRHRPPRLPRPRPRPWLMPRP: -0.12.

For the sequence RRIRGRPPRLPRPRPRPANEPRP, the “shrunken log2 fold change” value is -0.0603.

Regarding RRIRRRPPRLPRPRPRPADEPRP, the “shrunken log2 fold change” value amounted to 2.06. Regarding RRIRVRPPRLPRPRPRPCWRPRP, the “shrunken log2 fold change” value was found to be 0.0437.

For RRIRCRPPRLPRPRPRPPFIPRP, the “shrunken log2 fold change” value was -0.154. In the case of RRIRWRPPRLPRPRPRPKLHPRP it was 0.0953; in that of RRIRSRPPRLPRPRPRPYLKPRP, -0.0359. The same measure for RRIRWRPPRLPRPRPRPFYEPRP: -0.579; for RRIRQRPPRLPRPRPRPSTFPRP: -0.176; for RRIRLRPPRLPRPRPRPPDAPRP: 0.524. In the case of RRIRMRPPRLPRPRPRPENQPRP it was 1.86; in that of RRIRQRPPRLPRPRPRPVDPPRP, -0.0233. As to RRIRSRPPRLPRPRPRPWALPRP, the “shrunken log2 fold change” value is -0.0699. The same measure for RRIRRRPPRLPRPRPRPIEKPRP: 0.149. The same measure for RRIRARPPRLPRPRPRPWGEPRP: -0.00466; for RRIRFRPPRLPRPRPRPSMMPRP: -0.941; for RRIRWRPPRLPRPRPRPTKLPRP: 0.156. In the case of RRIRERPPRLPRPRPRPTHVPRP it was 0.231; in that of RRIRGRPPRLPRPRPRPIKYPRP, 0.00555; in that of RRIRHRPPRLPRPRPRPGIHPRP, -0.2. With RRIRDRPPRLPRPRPRPTLMPRP, the “shrunken log2 fold change” value stood at 0.114. For RRIRTRPPRLPRPRPRPSVCPRP, the “shrunken log2 fold change” value was -0.203.

Consider RRIRYRPPRLPRPRPRPHAHPRP, for which the “shrunken log2 fold change” value was -0.479.

RRIRMRPPRLPRPRPRPKANPRP: the “shrunken log2 fold change” value is 1.96.

With RRIRMRPPRLPRPRPRPHDFPRP, the “shrunken log2 fold change” value stood at 0.143. RRIRYRPPRLPRPRPRPHICPRP: the “shrunken log2 fold change” value is -0.0358. The same measure for RRIRMRPPRLPRPRPRPGIRPRP: 0.253; for RRIRYRPPRLPRPRPRPAEQPRP: 0.0374.

Take RRIRYRPPRLPRPRPRPWFWPRP: the “shrunken log2 fold change” value was -0.0261.

With RRIRGRPPRLPRPRPRPTTDPRP, the “shrunken log2 fold change” value is 0.918. For RRIRLRPPRLPRPRPRPNCFPRP, the “shrunken log2 fold change” value is -0.0891.
